“And” between values parts separate entries of the source, which are not always exact repeats. Identical values can stand only once.
Biological target: Chikungunya virus nuclear capsid protein (Chikungunya virus)
Assay: cryo-EM structure

In the case of “Chikungunya virus nuclear capsid protein (natural protein)”, the stoichiometry N is reported as 5 and 6.
